Values of other authors, collected in paper PMC6447450.

Molecular target: Mcl-1 (Homo sapiens) (UniProt Q07820)
Sequence (Q07820 whole entry): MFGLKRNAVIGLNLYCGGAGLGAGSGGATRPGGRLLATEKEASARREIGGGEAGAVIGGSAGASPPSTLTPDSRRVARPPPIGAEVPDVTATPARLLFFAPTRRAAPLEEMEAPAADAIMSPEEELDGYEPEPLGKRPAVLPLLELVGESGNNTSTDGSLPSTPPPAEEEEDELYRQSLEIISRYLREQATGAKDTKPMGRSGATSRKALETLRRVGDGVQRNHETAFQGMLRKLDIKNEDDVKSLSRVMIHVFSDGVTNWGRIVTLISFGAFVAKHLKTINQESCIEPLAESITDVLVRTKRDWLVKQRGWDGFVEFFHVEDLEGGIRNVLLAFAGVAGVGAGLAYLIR

Sequence of native BH3 peptide (BIM, 2PQK) BH3 (O43521 143-165): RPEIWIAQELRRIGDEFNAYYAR

Question: With “native BH3 peptide (BIM, 2PQK) BH3 (from UniProt O43521)” as the substance, how does the Kd read?
Answer: Its Kd is 1 nM.
